Reference: the supplement of paper PMC11316812
± gives the standard deviation of the averaged measurements.

Key:
[1] = test system: MCF7; assay: percentage of EdU-negative (G0-arrested) nuclei per well, 72 h; higher = more G0 arrest; settings: reference: sequence is the full UniProt precursor, the tested protein was the secreted form or ectodomain
[2] = test system: hTERT-HMEC; assay: as above; settings: reference: sequence is the full UniProt precursor, the tested protein was the secreted form or ectodomain
[3] = protein concentration 0.03125 µM
[4] = protein concentration 0.3125 µM
[5] = protein concentration 0.0225 µM
[6] = protein concentration 0.02275 µM
[7] = protein concentration 0.2275 µM
[8] = protein concentration 0.019635 µM
[9] = protein concentration 0.19635 µM
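Also: secreted proteins added to cultured cells, EdU pulse at the end, nuclei found by Hoechst imaging, EdU status from nuclear versus surrounding ring intensity ratio, PBS as neutral control.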

## MGHPPLLPLLLLLHTCVPASWGLRCMQCKTNGDCRVEECALGQDLCRTTIVRLWEEGEELELVEKSCTHSEKTNRTLSYRTGLKITSLTEVVCGLDLCNQGNSGRAVTYSRSRYLECISCGSSDMSCERGRHQSLQCRSPEEQCLDVVTHWIQEGEEGRPKDDRHLRGCGYLPGCPGSNGFHNNDTFHFLKCCNTTKCNEGPILELENLPQNGRQCYSCKGNSTHGCSSEETFLIDCRGPMNQCLVATGTHEPKNQSYMVRGCATASMCQHAHLGDAFSMNHIDVSCCTKSGCNHPDLDVQYRSGAAPQPGPAHLSLTITLLMTARLWGGTLLWT
[1]; [3]
  percentage of EdU-negative: 23.5 ± 1.9%
[1]; [4]
  percentage of EdU-negative: 21 ± 1.2%
[2]; [3]
  percentage of EdU-negative: 5.81 ± 0.25%
[2]; [4]
  percentage of EdU-negative: 5.79 ± 0.076%

## MGHRFLRGLLTLLLPPPPLYTRHRMLGPESVPPPKRSRSKLMAPPRIGTHNGTFHCDEALACALLRLLPEYRDAEIVRTRDPEKLASCDIVVDVGGEYDPRRHRYDHHQRSFTETMSSLSPGKPWQTKLSSAGLIYLHFGHKLLAQLLGTSEEDSMVGTLYDKMYENFVEEVDAVDNGISQWAEGEPRYALTTTLSARVARLNPTWNHPDQDTEAGFKRAMDLVQEEFLQRLDFYQHSWLPARALVEEALAQRFQVDPSGEIVELAKGACPWKEHLYHLESGLSPPVAIFFVIYTDQAGQWRIQCVPKEPHSFQSRLPLPEPWRGLRDEALDQVSGIPGCIFVHASGFIGGHRTREGALSMARATLAQRSYLPQIS [Q9HB07]
[1]; [5]
  percentage of EdU-negative: 26.7 ± 1.3%
[1]; protein concentration 0.225 µM
  percentage of EdU-negative: 27.2 ± 0.95%
[2]; [5]
  percentage of EdU-negative: 4.42 ± 0.079%
[2]; protein concentration 0.225 µM
  percentage of EdU-negative: 11 ± 1.7%

## MGIELLCLFFLFLGRNDHVQGGCALGGAETCEDCLLIGPQCAWCAQENFTHPSGVGERCDTPANLLAKGCQLNFIENPVSQVEILKNKPLSVGRQKNSSDIVQIAPQSLILKLRPGGAQTLQVHVRQTEDYPVDLYYLMDLSASMDDDLNTIKELGSRLSKEMSKLTSNFRLGFGSFVEKPVSPFVKTTPEEIANPCSSIPYFCLPTFGFKHILPLTNDAERFNEIVKNQKISANIDTPEGGFDAIMQAAVCKEKIGWRNDSLHLLVFVSDADSHFGMDSKLAGIVIPNDGLCHLDSKNEYSMSTVLEYPTIGQLIDKLVQNNVLLIFAVTQEQVHLYENYAKLIPGATVGLLQKDSGNILQLIISAYEELRSEVELEVLGDTEGLNLSFTAICNNGTLFQHQKKCSHMKVGDTASFSVTVNIPHCERRSRHIIIKPVGLGDALELLVSPECNCDCQKEVEVNSSKCHHGNGSFQCGVCACHPGHMGPRCECGEDMLSTDSCKEAPDHPSCSGRGDCYCGQCICHLSPYGNIYGPYCQCDNFSCVRHKGLLCGGNGDCDCGECVCRSGWTGEYCNCTTSTDSCVSEDGVLCSGRGDCVCGKCVCTNPGASGPTCERCPTCGDPCNSKRSCIECHLSAAGQAREECVDKCKLAGATISEEEDFSKDGSVSCSLQGENECLITFLITTDNEGKTIIHSINEKDCPKPPNIPMIMLGVSLAILLIGVVLLCIWKLLVSFHDRKEVAKFEAERSKAKWQTGTNPLYRGSTSTFKNVTYKHREKQKVDLSTDC
[1]; [5]
  percentage of EdU-negative: 23.6 ± 0.48%
[1]; protein concentration 0.225 µM
  percentage of EdU-negative: 28 ± 1.7%
[2]; [5]
  percentage of EdU-negative: 5.434 ± 0.051%
[2]; protein concentration 0.225 µM
  percentage of EdU-negative: 6.34 ± 1.4%

## MGIGRSEGGRRGAALGVLLALGAALLAVGSASEYDYVSFQSDIGPYQSGRFYTKPPQCVDIPADLRLCHNVGYKKMVLPNLLEHETMAEVKQQASSWVPLLNKNCHAGTQVFLCSLFAPVCLDRPIYPCRWLCEAVRDSCEPVMQFFGFYWPEMLKCDKFPEGDVCIAMTPPNATEASKPQGTTVCPPCDNELKSEAIIEHLCASEFALRMKIKEVKKENGDKKIVPKKKKPLKLGPIKKKDLKKLVLYLKNGADCPCHQLDNLSHHFLIMGRKVKSQYLLTAIHKWDKKNKEFKNFMKKMKNHECPTFQSVFK [Q8N474]
[1]; protein concentration 0.008 µM
  percentage of EdU-negative: 25.5 ± 1.6%
[1]; protein concentration 0.08 µM
  percentage of EdU-negative: 26.5 ± 2.3%
[2]; protein concentration 0.008 µM
  percentage of EdU-negative: 5.94 ± 0.1%
[2]; protein concentration 0.08 µM
  percentage of EdU-negative: 7.36 ± 1.1%

## MGILKLQVFLIVLSVALNHLKATPIESHQVEKRKCNTATCATQRLANFLVHSSNNFGAILSSTNVGSNTYGKRNAVEVLKREPLNYLPL
[1]; [6]
  percentage of EdU-negative: 26.1 ± 1.4%
[1]; [7]
  percentage of EdU-negative: 26.8 ± 4.2%
[2]; [6]
  percentage of EdU-negative: 4.22 ± 0.57%
[2]; [7]
  percentage of EdU-negative: 5.2 ± 0.82%

## MGILSFLPVLATESDWADCKSPQPWGHMLLWTAVLFLAPVAGTPAAPPKAVLKLEPQWINVLQEDSVTLTCRGTHSPESDSIQWFHNGNLIPTHTQPSYRFKANNNDSGEYTCQTGQTSLSDPVHLTVLSEWLVLQTPHLEFQEGETIVLRCHSWKDKPLVKVTFFQNGKSKKFSRSDPNFSIPQANHSHSGDYHCTGNIGYTLYSSKPVTITVQAPSSSPMGIIVAVVTGIAVAAIVAAVVALIYCRKKRISALPGYPECREMGETLPEKPANPTNPDEADKVGAENTITYSLLMHPDALEEPDDQNRI
[1]; [8]
  percentage of EdU-negative: 25 ± 1.1%
[1]; [9]
  percentage of EdU-negative: 25.9 ± 1.6%
[2]; [8]
  percentage of EdU-negative: 4.58 ± 0.074%
[2]; [9]
  percentage of EdU-negative: 5.06 ± 0.42%

## MGIQGGSVLFGLLLVLAVFCHSGHSLQCYNCPNPTADCKTAVNCSSDFDACLITKAGLQVYNKCWKFEHCNFNDVTTRLRENELTYYCCKKDLCNFNEQLENGGTSLSEKTVLLLVTPFLAAAWSLHP
[1]; [5]
  percentage of EdU-negative: 28.2 ± 1.9%
[1]; protein concentration 0.225 µM
  percentage of EdU-negative: 25.8 ± 1%
[2]; [5]
  percentage of EdU-negative: 5.4 ± 0.53%
[2]; protein concentration 0.225 µM
  percentage of EdU-negative: 5.24 ± 1.1%
